Key:
[1] = target: the molecule itself; experiment: cryo-EM structure; RbcL–Raf1–RbcX ternary complex co-expressed in E. coli with GroEL-GroES, purified by Ni-NTA and gel filtration in 50 mM Tris-HCl pH 8.0, 20 mM NaCl, 5 mM MgCl2; ~2 mg/mL; D4 symmetry; 3.3 Å
[2] = target: T1, Anabaena sp. PCC 7120 RbcL-Raf1 complex (RbcL8Raf1_(8)) (Anabaena sp. PCC 7120, UniProt P00879 1-476; Q8YLP6 1-361); experiment: native gel or EMSA; RuBisCO assembly assays: 0.5 µM L8F8 or L8F8X16 mixed with Flag-RbcS (0-10-fold to RbcL), with or without pre-incubation with 8 µM RbcX or RbcX^E32A&R69A or RbcX2 at 0-1 fold to RbcL; 25 °C, 20 mM Tris-HCl pH 8.0, 300 mM NaCl, 5 mM MgCl2, 5% glycerol; ~0.5 h; 6% native-PAGE, bands analysed by SDS-PAGE; details: both partners purified
T1 construct: RbcL, Anabaena sp; as m1; plasmid pET19-His-RbcL–Raf1; Raf1, Anabaena sp; as m2; The preparation holds L8F8 and a fraction of L2F2 on native-PAGE; also called L8F8; L2F2 (smaller form in the same preparation); copies: 8 + 8
T1 sequence (Q8YLP6 whole entry, one chain of several): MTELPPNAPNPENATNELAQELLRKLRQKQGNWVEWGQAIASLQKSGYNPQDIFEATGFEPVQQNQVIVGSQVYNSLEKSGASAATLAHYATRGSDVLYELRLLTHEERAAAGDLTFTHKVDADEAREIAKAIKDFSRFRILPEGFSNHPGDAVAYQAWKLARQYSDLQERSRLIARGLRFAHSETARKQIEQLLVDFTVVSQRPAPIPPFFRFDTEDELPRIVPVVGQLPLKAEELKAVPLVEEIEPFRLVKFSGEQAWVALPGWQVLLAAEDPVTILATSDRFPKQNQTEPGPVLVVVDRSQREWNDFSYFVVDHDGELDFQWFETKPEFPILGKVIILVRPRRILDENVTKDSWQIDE

| binding result [2] | Binder | stoichiometry N [1] |
| --- | --- | --- |
| – | RbcX from Anabaena sp. PCC 7120, co-expressed in the ternary complex (natural protein, RbcX, RuBisCO chaperone, Anabaena sp; coding region amplified from genomic DNA; plasmid pCDFduet-GroEL-GroES-RbcX-Raf1; No tag is named for this RbcX in the plasmid name; also called RbcX2 (dimer); source: E. coli BL21 (DE3), co-expressed with His-RbcL, Raf1 and GroEL-GroES, co-purified (Ni-NTA, gel filtration)) MNLKQIAKDTAKTLQSYLTYQALMTVLAQLGETNPPLALWLHTFSVGKVQDGEAYVKELFREQPDLALRIMTVREHIAEEVAEFLPEMVRSGIQQANMEQRRQHLERMTHLSLSNPSPESEQQTISDTDWDH | 2 |
| – | RuBisCO large subunit RbcL from Anabaena sp. PCC 7120 (His-RbcL) (natural protein, UniProt P00879 1-476, looked up, RbcL, ribulose-1,5-bisphosphate carboxylase/oxygenase large subunit, Anabaena sp; coding region amplified from genomic DNA; plasmid pET19-His-RbcL; also called RbcL8 core; source: E. coli BL21 (DE3), co-expressed with GroEL-GroES and chaperones, purified (Ni-NTA, gel filtration); also in lysate (holoenzyme co-purification)) MSYAQTKTQTKSGYKAGVQDYRLTYYTPDYTPKDTDILAAFRVTPQPGVPFEEAAAAVAAESSTGTWTTVWTDLLTDLDRYKGRCYDIEPVPGEDNQFIAYIAYPLDLFEEGSITNVLTSIVGNVFGFKALRALRLEDIRFPVAYIKTFQGPPHGIQVERDKLNKYGRPLLGCTIKPKLGLSAKNYGRAVYECLRGGLDFTKDDENINSAPFQRWRDRFLFVADAITKAQAETGEIKGHYLNVTAPTCEEMLKRAEYAKELKQPIIMHDYLTAGFTANTTLARWCRDNGVLLHIHRAMHAVIDRQKNHGIHFRVLAKALRLSGGDHIHTGTVVGKLEGERGITMGFVDLLRENYVEQDKSRGIYFTQDWASLPGVMAVASGGIHVWHMPALVEIFGDDSVLQFGGGTLGHPWGNAPGATANRVALEACVQARNEGRNLAREGNDVIREAAKWSPELAVACELWKEIKFEFEAMDTV | 8 |
| binds | Recombinant Anabaena sp. PCC 7120 Flag-RbcS (RuBisCO small subunit) (natural protein, UniProt P06514 1-109, looked up, RbcS, RuBisCO small subunit, Anabaena sp; coding region amplified from genomic DNA; plasmid pET19-Flag-RbcS; A His-RbcS was also made (pET19-His-RbcS); the assembly-assay methods name Flag-RbcS; source: E. coli BL21 (DE3), purified (anti-FLAG M2 gel, Superdex 75); also in lysate (holoenzyme co-purification)) MQTLPKERRYETLSYLPPLTDVQIEKQVQYILSQGYIPAVEFNEVSEPTELYWTLWKLPLFGAKTSREVLAEVQSCRSQYPGHYIRVVGFDNIKQCQILSFIVHKPSRY | – |

Source: article PMC9485235, “Structural insights into cyanobacterial RuBisCO assembly coordinated by two chaperones Raf1 and RbcX” (Cell Discovery, 2022)
